From paper PMC2756588

T1: Lsb4, P32793
T1 sequence (P32793 402-468, looked up): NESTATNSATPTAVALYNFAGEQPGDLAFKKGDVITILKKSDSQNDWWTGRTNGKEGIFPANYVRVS

T2: Cdc25, P04821
T2 sequence (P04821 50-136, looked up): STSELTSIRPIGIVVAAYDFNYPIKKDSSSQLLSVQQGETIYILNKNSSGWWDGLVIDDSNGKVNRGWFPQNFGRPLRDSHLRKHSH

T3: Bzz1-1, P38822
T3 sequence (P38822 478-572, looked up): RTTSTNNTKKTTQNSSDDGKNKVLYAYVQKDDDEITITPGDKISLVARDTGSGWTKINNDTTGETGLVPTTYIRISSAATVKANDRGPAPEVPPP

T4: Pin3, Q06449
T4 sequence (Q06449 53-122, looked up): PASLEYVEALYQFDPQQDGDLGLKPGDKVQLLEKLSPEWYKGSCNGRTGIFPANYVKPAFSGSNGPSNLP

T5: Boi2, P39969
T5 sequence (P39969 32-116, looked up): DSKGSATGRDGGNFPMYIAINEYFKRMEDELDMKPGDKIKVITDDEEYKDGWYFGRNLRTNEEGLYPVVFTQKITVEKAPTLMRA

T6: Myo5, Q04439
T6 sequence (Q04439 1072-1160, looked up): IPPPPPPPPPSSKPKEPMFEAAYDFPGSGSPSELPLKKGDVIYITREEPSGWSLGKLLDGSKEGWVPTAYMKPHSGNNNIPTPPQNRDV

T7: Bbc1, P47068
T7 sequence (P47068 1-78, looked up): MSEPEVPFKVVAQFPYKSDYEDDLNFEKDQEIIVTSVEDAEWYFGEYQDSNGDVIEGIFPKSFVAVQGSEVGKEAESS

T8: Bud14, P27637
T8 sequence (P27637 247-328, looked up): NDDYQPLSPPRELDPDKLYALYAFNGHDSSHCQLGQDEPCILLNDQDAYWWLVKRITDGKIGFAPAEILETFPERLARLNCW

T9: Hof1, Q05080
T9 sequence (Q05080 590-669, looked up): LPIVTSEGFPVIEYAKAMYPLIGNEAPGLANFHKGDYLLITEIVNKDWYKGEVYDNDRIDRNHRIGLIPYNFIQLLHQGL

T10: Abp1, P15891
T10 sequence (P15891 535-592, looked up): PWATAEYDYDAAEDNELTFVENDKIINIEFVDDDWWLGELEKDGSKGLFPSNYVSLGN

T11: Sla1-2, P32790
T11 sequence (P32790 60-140, looked up): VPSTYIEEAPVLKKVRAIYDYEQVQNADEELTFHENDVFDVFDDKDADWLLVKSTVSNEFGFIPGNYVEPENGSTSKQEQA

T12: Fus1, P11710
T12 sequence (P11710 432-512, looked up): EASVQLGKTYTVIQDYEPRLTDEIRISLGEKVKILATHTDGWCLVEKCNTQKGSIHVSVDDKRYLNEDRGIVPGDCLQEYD

T13: Pex13, P80667
T13 sequence (P80667 295-386, looked up): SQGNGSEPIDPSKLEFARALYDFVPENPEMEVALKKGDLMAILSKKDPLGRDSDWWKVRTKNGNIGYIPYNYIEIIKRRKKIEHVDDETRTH

T14: Hse1, P38753
T14 sequence (P38753 208-285, looked up): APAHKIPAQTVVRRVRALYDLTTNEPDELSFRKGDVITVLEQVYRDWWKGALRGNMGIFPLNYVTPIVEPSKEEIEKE

T15: Bzz1-2, P38822
T15 sequence (P38822 568-633, looked up): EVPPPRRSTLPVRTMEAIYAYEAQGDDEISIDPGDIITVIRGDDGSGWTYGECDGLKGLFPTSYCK

T16: Lsb3, P43603
T16 sequence (P43603 385-451, looked up): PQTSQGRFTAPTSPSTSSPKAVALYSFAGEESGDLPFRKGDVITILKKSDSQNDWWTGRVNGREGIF

T17: Sla1-3, P32790
T17 sequence (P32790 344-424, looked up): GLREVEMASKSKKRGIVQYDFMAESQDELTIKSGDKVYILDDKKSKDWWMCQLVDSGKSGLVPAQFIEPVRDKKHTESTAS

T18: Boi1, P38041
T18 sequence (P38041 1-86, looked up): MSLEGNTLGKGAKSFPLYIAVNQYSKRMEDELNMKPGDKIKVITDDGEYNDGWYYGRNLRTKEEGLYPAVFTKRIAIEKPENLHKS

T19: Cyk3, Q07533
T19 sequence (Q07533 1-83, looked up): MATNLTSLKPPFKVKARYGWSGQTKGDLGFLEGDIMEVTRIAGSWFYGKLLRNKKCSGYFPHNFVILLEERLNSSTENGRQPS

T20: Nbp2, Q12163
T20 sequence (Q12163 103-180, looked up): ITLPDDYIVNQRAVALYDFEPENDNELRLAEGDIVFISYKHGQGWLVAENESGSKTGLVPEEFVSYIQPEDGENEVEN

T21: Lsb1, P53281
T21 sequence (P53281 45-122, looked up): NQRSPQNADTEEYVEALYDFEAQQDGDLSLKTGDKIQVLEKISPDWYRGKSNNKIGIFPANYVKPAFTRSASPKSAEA


Legend:
Assay in all cases: SPOT array
[1] = biological target: T1, Lsb4, P32793; settings: median of control spots 397
[2] = biological target: T2, Cdc25, P04821; settings: median of control spots 969
[3] = biological target: T3, Bzz1-1, P38822; settings: median of control spots 4446
[4] = biological target: Sho1, P40073; settings: median of control spots 1148
[5] = biological target: T4, Pin3, Q06449; settings: median of control spots 2171
[6] = biological target: T5, Boi2, P39969; settings: median of control spots 1161
[7] = biological target: T6, Myo5, Q04439; settings: median of control spots 471
[8] = biological target: T7, Bbc1, P47068; settings: median of control spots 796
[9] = biological target: GST; settings: median of control spots 978
[10] = biological target: T8, Bud14, P27637; settings: median of control spots 956
[11] = biological target: T9, Hof1, Q05080; settings: median of control spots 4086
[12] = biological target: Bem1-1, P29366; settings: median of control spots 4282
[13] = biological target: Rvs167, P39743; settings: median of control spots 2707
[14] = biological target: T10, Abp1, P15891; settings: median of control spots 935
[15] = biological target: T11, Sla1-2, P32790; settings: median of control spots 712
[16] = biological target: T12, Fus1, P11710; settings: median of control spots 1200
[17] = biological target: T13, Pex13, P80667; settings: median of control spots 1341
[18] = biological target: T14, Hse1, P38753; settings: median of control spots 1727
[19] = biological target: Bem1-2, P29366; settings: median of control spots 4347
[20] = biological target: T15, Bzz1-2, P38822; settings: median of control spots 4538
[21] = biological target: T16, Lsb3, P43603; settings: median of control spots 406
[22] = biological target: T17, Sla1-3, P32790; settings: median of control spots 5475
[23] = biological target: Myo3, P36006; settings: median of control spots 468
[24] = biological target: T18, Boi1, P38041; settings: median of control spots 1162
[25] = biological target: T19, Cyk3, Q07533; settings: median of control spots 1451
[26] = biological target: T20, Nbp2, Q12163; settings: median of control spots 357
[27] = biological target: T21, Lsb1, P53281; settings: median of control spots 388

Chain of Bem1-2, P29366 (P29366 139-227): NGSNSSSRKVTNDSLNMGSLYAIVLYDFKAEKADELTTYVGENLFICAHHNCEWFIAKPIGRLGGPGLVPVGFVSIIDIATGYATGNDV
Chain of Sho1, P40073 (P40073 287-367): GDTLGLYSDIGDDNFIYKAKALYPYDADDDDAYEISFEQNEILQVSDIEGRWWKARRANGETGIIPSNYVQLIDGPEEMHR
Chain of Bem1-1, P29366 (P29366 55-141): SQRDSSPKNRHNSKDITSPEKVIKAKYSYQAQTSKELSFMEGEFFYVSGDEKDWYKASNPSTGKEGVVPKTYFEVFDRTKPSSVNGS
Chain of Rvs167, P39743 (P39743 419-482): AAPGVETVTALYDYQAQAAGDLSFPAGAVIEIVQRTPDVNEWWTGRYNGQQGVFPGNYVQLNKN

SPOT intensity [1]	SPOT intensity [2]	SPOT intensity [3]	SPOT intensity [4]	SPOT intensity [5]	SPOT intensity [6]	SPOT intensity [7]	SPOT intensity [8]	SPOT intensity [9]	SPOT intensity [10]	SPOT intensity [11]	SPOT intensity [12]	SPOT intensity [13]	SPOT intensity [14]	SPOT intensity [15]	SPOT intensity [16]	SPOT intensity [17]	SPOT intensity [18]	SPOT intensity [19]	SPOT intensity [20]	Binder	other results
67	0	0	25	54	0	77	0	0	1	307	0	2	99	7	0	35	0	8	0	PSTMDFPKLPSFQNS	SPOT intensity [21]: 21; SPOT intensity [22]: 0; SPOT intensity [23]: 51; SPOT intensity [24]: 0; SPOT intensity [25]: 2; SPOT intensity [26]: 57; SPOT intensity [27]: 44
115	0	0	21	61	0	103	90	1	0	0	1	10	81	19	0	73	1	65	28	QTMRQAPKRPDADVA	SPOT intensity [21]: 60; SPOT intensity [22]: 42; SPOT intensity [23]: 44; SPOT intensity [24]: 0; SPOT intensity [25]: 0; SPOT intensity [26]: 989; SPOT intensity [27]: 211
8	13	0	8	10	2740	2	12	0	5	0	0	0	60	792	0	19	0	0	0	TSIEIPKRSPLRFTS	SPOT intensity [21]: 5; SPOT intensity [22]: 0; SPOT intensity [23]: 4; SPOT intensity [24]: 3040; SPOT intensity [25]: 0; SPOT intensity [26]: 0; SPOT intensity [27]: 0
42	0	0	164	69	0	52	0	1	0	0	0	0	173	3	0	52	0	0	0	PKMLPIPSKPTLFDL	SPOT intensity [21]: 15; SPOT intensity [22]: 0; SPOT intensity [23]: 36; SPOT intensity [24]: 0; SPOT intensity [25]: 0; SPOT intensity [26]: 19; SPOT intensity [27]: 2
87	37	0	39	40	0	65	0	1	13	2	5	0	87	6	0	47	5	6	0	NSMRPPLLIPAATTK	SPOT intensity [21]: 25; SPOT intensity [22]: 0; SPOT intensity [23]: 40; SPOT intensity [24]: 0; SPOT intensity [25]: 0; SPOT intensity [26]: 9; SPOT intensity [27]: 387
39	0	1	46	125	0	74	0	0	0	0	0	0	32	7	0	219	0	5	0	VFQFQMPTTPISTKM	SPOT intensity [21]: 14; SPOT intensity [22]: 0; SPOT intensity [23]: 32; SPOT intensity [24]: 0; SPOT intensity [25]: 0; SPOT intensity [26]: 3; SPOT intensity [27]: 1
